Results taken from article PMC2196246 (The Journal of Experimental Medicine, 1997).
No end group written: not given here.

Assays:
[1] = biological target: I-A^g7 (mouse (NOD; endogenous in 4G4.7 hybridoma)); experiment: ELISA
purified I-A^g7 [2] = biological target: T1, purified I-A^g7 (Mus musculus, UniProt P04228+Q31135); experiment: biochemical; type: binding, NOD mouse
T1 sequence (P04228 24-256): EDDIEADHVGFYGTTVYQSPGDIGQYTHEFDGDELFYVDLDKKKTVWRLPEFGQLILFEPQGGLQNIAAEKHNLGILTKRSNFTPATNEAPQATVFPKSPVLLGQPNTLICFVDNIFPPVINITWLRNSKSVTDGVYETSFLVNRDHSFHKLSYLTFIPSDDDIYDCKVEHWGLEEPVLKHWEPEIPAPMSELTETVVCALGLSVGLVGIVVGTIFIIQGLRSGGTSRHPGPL
T1 sequence (Q31135 1-263): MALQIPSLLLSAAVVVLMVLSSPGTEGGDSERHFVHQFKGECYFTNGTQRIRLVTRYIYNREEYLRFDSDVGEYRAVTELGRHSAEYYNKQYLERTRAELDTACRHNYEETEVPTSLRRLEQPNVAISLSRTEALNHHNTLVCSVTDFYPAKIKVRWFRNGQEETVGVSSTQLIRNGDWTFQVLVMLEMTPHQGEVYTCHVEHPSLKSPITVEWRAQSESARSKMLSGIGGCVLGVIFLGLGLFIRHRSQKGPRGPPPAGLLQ

purified I-A^g7 [3] = settings: cited from earlier work
purified I-A^g7 [4] = experiment: biochemical; type: binding, NOD mouse

Row | IC50 [1] | Substance | other results
1 | 300 nM | HEL 10–22 A10L (peptide) | –
2 | < 1000 nM | HEL 10–22 L17V (peptide) | –
3 | 250 nM | HEL 10–22 K13Y (peptide) | –
4 | 1000 to 10000 nM | HEL 10–22 N19F (peptide) | –
5 | – | MKRHGLDNYRGY-NH2 [HEL 12–23] | IC50 (purified I-A^g7 [2]): 250 nM
6 | – | RHGLDNYRGYSLGN-NH2 [HEL 14–27] | IC50 (purified I-A^g7 [2]): 2000 nM
7 | < 1000 nM | HEL 10–22 L17M (peptide) | –
8 | 1000 to 10000 nM | HEL 10–22 N19R (peptide) | –
9 | 1000 nM | human proinsulin 25–39 (peptide) | –
10 | 1000 to 10000 nM | HEL 10–22 L17F (peptide) | –
11 | – | AAAMKRHGLDNYRGYSLGN-NH2 [HEL 9–27] | IC50 (purified I-A^g7 [2]): 350 nM
12 | – | HEL 11–25: HEL peptide tested by Carrasco-Marin et al. (AMKRHGLDNYRGYSL; UniProt P00698 29-43, looked up, fragment) | direct binding to purified I-A^g7 (purified I-A^g7 [3]): unable to demonstrate direct binding
13 | 2000 nM | HEL 10–22 N19D (peptide) | –
14 | – | AAAMKRHGLDNYRG-NH2 [HEL 9–22] | IC50 (purified I-A^g7 [2]): 300 nM
15 | – | AAAMKRHGLDNYRGYSLG-NH2 [HEL 9–26] | IC50 (purified I-A^g7 [2]): 300 nM
16 | < 1000 nM | HEL 10–22 D18E (peptide) | –
17 | < 1000 nM | HEL 10–22 Y20R (peptide) | –
18 | 1000 to 10000 nM | HEL 10–22 L17T (peptide) | –
19 | < 1000 nM | HEL 10–22 N19S (peptide) | –
20 | 295 nM | HEL 10–23 (peptide) | –
21 | 1000 to 10000 nM | HEL 10–22 R14G (peptide) | –
22 | < 1000 nM | HEL 10–22 N19G (peptide) | –

Row | IC50 [1] | Substance | other results
23 | – | AAAMKRHGLDNYRGYS-NH2 [HEL 9–24] | IC50 (purified I-A^g7 [2]): 200 nM
24 | 350 nM | HEL 10–22 G22A (peptide) | –
25 | 1000 to 10000 nM | HEL 10–22 Y20H (peptide) | –
26 | 1000 to 10000 nM | HEL 10–22 Y20N (peptide) | –
27 | 1000 nM | human proinsulin 49–63 (peptide) | –
28 | 300 nM | HEL 10–22 R14A (peptide) | –
29 | 650 nM | HEL 10–22 G22P (peptide) | –
30 | – | KPKATAEQLKTVMDD [In serum albumin (560–574), reference compound] | binding to I-A^g7 (in words) (purified I-A^g7 [4]): did not bind
31 | 100 nM | HEL 10–22 D18Y (peptide) | –
32 | 1000 to 10000 nM | HEL 10–22 N19E (peptide) | –
33 | – | KRHGLDNYRG-NH2 [HEL 13–22] | IC50 (purified I-A^g7 [2]): 250 nM
34 | 1000 nM | human proinsulin 21–35 (peptide) | –
35 | 2000 nM | HEL 10–22 G16D (peptide) | –
36 | 1000 to 10000 nM | HEL 10–22 L17N (peptide) | –
37 | 300 nM | HEL 10–22 K13A (peptide) | –
38 | 30000 nM | human proinsulin 5–19 (peptide) | –
39 | > 50000 nM | HEL 9–17 (peptide) | –
40 | – | KRHGLDNYRGYSLGN-NH2 [HEL 13–27] | IC50 (purified I-A^g7 [2]): 300 nM
41 | 1000 to 10000 nM | HEL 10–22 Y20W (peptide) | –
42 | 295 nM | HEL 10–22 (peptide) | –
43 | – | KRHGLDNYRGY-NH2 [HEL 13–23] | IC50 (purified I-A^g7 [2]): 200 nM
44 | > 50000 nM | HEL 19–27 (peptide) | –

Row | IC50 [1] | Substance | other results
45 | – | AAMKRHGLDNYRGYSLGN-NH2 [HEL 10–27] | IC50 (purified I-A^g7 [2]): 300 nM
46 | 1750 nM | HEL 10–22 H15D (peptide) | –
47 | 350 nM | HEL 10–22 R21P (peptide) | –
48 | 200 nM | HEL 10–22 D18Q (peptide) | –
49 | 2000 nM | HEL 14–27 (peptide) | –
50 | 1000 nM | human proinsulin 9–23 (peptide) | –
51 | 300 nM | HEL 10–22 H15A (peptide) | –
52 | – | AAAMKRHGLDNYRGYSL-NH2 [HEL 9–25] | IC50 (purified I-A^g7 [2]): 300 nM
53 | 1000 to 10000 nM | HEL 10–22 Y20M (peptide) | –
54 | – | AAAMKRHGLDNYR-NH2 [HEL 9–21] | IC50 (purified I-A^g7 [2]): 300 nM
55 | 250 nM | HEL 13–22 (peptide) | –
56 | 200 nM | HEL 13–23 (peptide) | –
57 | 300 nM | HEL 10–22 G22Y (peptide) | –
58 | > 50000 nM | HEL 18–27 (peptide) | –
59 | < 1000 nM | HEL 10–22 D18R (peptide) | –
60 | – | HGLDNYRGYSLGN-NH2 [HEL 15–27] | IC50 (purified I-A^g7 [2]): 20000 nM
61 | 300 nM | HEL 11–27 (peptide) | –
62 | 300 nM | HEL 12–27 (peptide) | –
63 | 300 nM | HEL 9–25 (peptide) | –
64 | 300 nM | HEL 9–22 (peptide) | –
65 | 300 nM | HEL 9–26 (peptide) | –
66 | 2000 nM | HEL 10–22 N19Q (peptide) | –

Row | IC50 [1] | Substance | other results
67 | 1000 to 10000 nM | HEL 10–22 L17H (peptide) | –
68 | 200 nM | HEL 9–24 (peptide) | –
69 | > 50000 nM | HEL 17–27 (peptide) | –
70 | 2000 nM | HEL 10–22 Y20Q (peptide) | –
71 | > 50000 nM | HEL 10–22 N19Y (peptide) | –
72 | 300 nM | HEL 10–27 (peptide) | –
73 | < 1000 nM | HEL 10–22 L17I (peptide) | –
74 | 350 nM | HEL 10–22 R21K (peptide) | –
75 | 1000 to 10000 nM | HEL 10–22 R14S (peptide) | –
76 | – | AMKRHGLDNYRGYSLGN-NH2 [HEL 11–27] | IC50 (purified I-A^g7 [2]): 300 nM
77 | < 1000 nM | HEL 10–22 Y20F (peptide) | –
78 | 1000 to 10000 nM | HEL 10–22 R14W (peptide) | –
79 | 350 nM | HEL 9–27 (peptide) | –
80 | 250 nM | HEL 12–23 (peptide) | –
81 | 350 nM | HEL 10–22 A11Y (peptide) | –
82 | 300 nM | HEL 10–22 D18P (peptide) | –
83 | > 50000 nM | HEL 16–27 (peptide) | –
84 | – | MKRHGLDNYRGYSLGN-NH2 [HEL 12–27] | IC50 (purified I-A^g7 [2]): 300 nM
85 | 300 nM | HEL 13–27 (peptide) | –
86 | 300 nM | HEL 9–21 (peptide) | –
87 | 300 nM | HEL 10–22 R21Y (peptide) | –
